Laboratory results published in the supplement of paper PMC9112550, “Optimization of the antimicrobial peptide Bac7 by deep mutational scanning” (BMC Biology, 2022).

Test system: Escherichia coli TOP10
Assay: shrunken log2 fold change of peptide-encoding DNA abundance (4.5 h post-induction vs induction); higher = less antimicrobial activity (less host growth inhibition)
Details: time post-induction: 4.5 h; library: site-saturation at positions 5, 18, 19, 20
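Also: peptides expressed intracellularly from a pBAD plasmid library in pooled LB shake-flask culture, induced with 0.3% L-arabinose, DNA abundance read by NGS, three biological replicates, DESeq2 with apeglm shrinkage.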

RRIRTRPPRLPRPRPRPQIHPRP
shrunken log2 fold change: -0.15

RRIRQRPPRLPRPRPRPRIWPRP
shrunken log2 fold change: 0.123

RRIRCRPPRLPRPRPRPMFEPRP
shrunken log2 fold change: -0.212

RRIRPRPPRLPRPRPRPFQHPRP
shrunken log2 fold change: -0.00804

RRIRERPPRLPRPRPRPDEIPRP
shrunken log2 fold change: -0.111

RRIRQRPPRLPRPRPRPKYKPRP
shrunken log2 fold change: -0.445

RRIRNRPPRLPRPRPRPIDWPRP
shrunken log2 fold change: 0.0533

RRIRPRPPRLPRPRPRPVAMPRP
shrunken log2 fold change: 0.0478

RRIRERPPRLPRPRPRPPQTPRP
shrunken log2 fold change: 0.223

RRIRERPPRLPRPRPRPCFYPRP
shrunken log2 fold change: -0.43

RRIRFRPPRLPRPRPRPEAHPRP
shrunken log2 fold change: 0.171

RRIRWRPPRLPRPRPRPWCNPRP
shrunken log2 fold change: -0.0973

RRIRDRPPRLPRPRPRPFLSPRP
shrunken log2 fold change: 0.0846

RRIRPRPPRLPRPRPRPRARPRP
shrunken log2 fold change: 0.58

RRIRMRPPRLPRPRPRPHYPPRP
shrunken log2 fold change: -0.303

RRIRLRPPRLPRPRPRPYKCPRP
shrunken log2 fold change: -0.0222

RRIRERPPRLPRPRPRPYYEPRP
shrunken log2 fold change: -0.224

RRIRFRPPRLPRPRPRPGMKPRP
shrunken log2 fold change: -0.0551

RRIRARPPRLPRPRPRPTSEPRP
shrunken log2 fold change: 0.751

RRIRRRPPRLPRPRPRPNFIPRP
shrunken log2 fold change: -0.481

RRIRARPPRLPRPRPRPMFHPRP
shrunken log2 fold change: -0.275

RRIRWRPPRLPRPRPRPTWKPRP
shrunken log2 fold change: 0.261

RRIRYRPPRLPRPRPRPKDCPRP
shrunken log2 fold change: -0.494

RRIRKRPPRLPRPRPRPDNCPRP
shrunken log2 fold change: -0.0122

RRIRTRPPRLPRPRPRPDMGPRP
shrunken log2 fold change: -0.0558

RRIRVRPPRLPRPRPRPQRPPRP
shrunken log2 fold change: 0.306

RRIRVRPPRLPRPRPRPYLWPRP
shrunken log2 fold change: -0.269

RRIRNRPPRLPRPRPRPPWLPRP
shrunken log2 fold change: 0.482

RRIRSRPPRLPRPRPRPGWDPRP
shrunken log2 fold change: 0.444

RRIRWRPPRLPRPRPRPPKMPRP
shrunken log2 fold change: 0.172

RRIRNRPPRLPRPRPRPGKDPRP
shrunken log2 fold change: -0.0565

RRIRGRPPRLPRPRPRPQTAPRP
shrunken log2 fold change: 0.205

RRIRARPPRLPRPRPRPILIPRP
shrunken log2 fold change: -0.374

RRIRYRPPRLPRPRPRPHMWPRP
shrunken log2 fold change: -0.621

RRIRTRPPRLPRPRPRPKQRPRP
shrunken log2 fold change: 0.166

RRIRCRPPRLPRPRPRPIYIPRP
shrunken log2 fold change: -0.43

RRIRYRPPRLPRPRPRPYMKPRP
shrunken log2 fold change: -0.122

RRIRWRPPRLPRPRPRPVRPPRP
shrunken log2 fold change: 0.305

RRIRIRPPRLPRPRPRPCMTPRP
shrunken log2 fold change: -0.337

RRIRERPPRLPRPRPRPGQVPRP
shrunken log2 fold change: 0.126

RRIRVRPPRLPRPRPRPWLIPRP
shrunken log2 fold change: -0.277

RRIRGRPPRLPRPRPRPDHNPRP
shrunken log2 fold change: 0.0326

RRIRGRPPRLPRPRPRPTCWPRP
shrunken log2 fold change: 0.764

RRIRMRPPRLPRPRPRPCTKPRP
shrunken log2 fold change: 2.28

RRIRARPPRLPRPRPRPHAVPRP
shrunken log2 fold change: 0.123

RRIRTRPPRLPRPRPRPHLEPRP
shrunken log2 fold change: -0.0891

RRIRIRPPRLPRPRPRPHMQPRP
shrunken log2 fold change: -0.169

RRIRMRPPRLPRPRPRPTEVPRP
shrunken log2 fold change: 0.598

RRIRLRPPRLPRPRPRPLCPPRP
shrunken log2 fold change: -0.0651

RRIRDRPPRLPRPRPRPNFWPRP
shrunken log2 fold change: 0.375

RRIRVRPPRLPRPRPRPTTTPRP
shrunken log2 fold change: 0.1

RRIRHRPPRLPRPRPRPQQFPRP
shrunken log2 fold change: -0.217

RRIRSRPPRLPRPRPRPFCLPRP
shrunken log2 fold change: -0.302

RRIRERPPRLPRPRPRPELYPRP
shrunken log2 fold change: -0.0287

RRIRWRPPRLPRPRPRPCAQPRP
shrunken log2 fold change: 0.162

RRIRQRPPRLPRPRPRPALTPRP
shrunken log2 fold change: 0.128

RRIRWRPPRLPRPRPRPWDYPRP
shrunken log2 fold change: -0.0902

RRIRIRPPRLPRPRPRPQIGPRP
shrunken log2 fold change: -0.451

RRIRFRPPRLPRPRPRPDIIPRP
shrunken log2 fold change: 0.0368

RRIRYRPPRLPRPRPRPLSRPRP
shrunken log2 fold change: -0.155

RRIRHRPPRLPRPRPRPYKQPRP
shrunken log2 fold change: -0.0238

RRIRGRPPRLPRPRPRPVAKPRP
shrunken log2 fold change: 0.961

RRIRFRPPRLPRPRPRPSKVPRP
shrunken log2 fold change: -0.293

RRIRARPPRLPRPRPRPQDHPRP
shrunken log2 fold change: -0.208

RRIRQRPPRLPRPRPRPKMCPRP
shrunken log2 fold change: -0.002

RRIRWRPPRLPRPRPRPAFAPRP
shrunken log2 fold change: 1.23

RRIRDRPPRLPRPRPRPAWPPRP
shrunken log2 fold change: 0.815

RRIRNRPPRLPRPRPRPNRPPRP
shrunken log2 fold change: -0.0547

RRIRARPPRLPRPRPRPHDQPRP
shrunken log2 fold change: 0.808

RRIRKRPPRLPRPRPRPFIAPRP
shrunken log2 fold change: -0.0583

RRIRERPPRLPRPRPRPMRCPRP
shrunken log2 fold change: 0.0239

RRIRARPPRLPRPRPRPVYTPRP
shrunken log2 fold change: -0.159

RRIRGRPPRLPRPRPRPCGRPRP
shrunken log2 fold change: 0.799

RRIRCRPPRLPRPRPRPREAPRP
shrunken log2 fold change: 0.521

RRIRGRPPRLPRPRPRPCYTPRP
shrunken log2 fold change: 0.498

RRIRMRPPRLPRPRPRPGQNPRP
shrunken log2 fold change: 0.0316

RRIRKRPPRLPRPRPRPVRVPRP
shrunken log2 fold change: 0.591

RRIRWRPPRLPRPRPRPCYLPRP
shrunken log2 fold change: -0.33

RRIRYRPPRLPRPRPRPHGTPRP
shrunken log2 fold change: -0.209

RRIRRRPPRLPRPRPRPQTSPRP
shrunken log2 fold change: 0.24

RRIRSRPPRLPRPRPRPLDHPRP
shrunken log2 fold change: 0.0458

RRIRMRPPRLPRPRPRPQQTPRP
shrunken log2 fold change: 1.14

RRIRGRPPRLPRPRPRPLLFPRP
shrunken log2 fold change: 0.873

RRIRARPPRLPRPRPRPFSNPRP
shrunken log2 fold change: -0.342

RRIRWRPPRLPRPRPRPYLRPRP
shrunken log2 fold change: -0.37

RRIRFRPPRLPRPRPRPRIQPRP
shrunken log2 fold change: 0.018

RRIRGRPPRLPRPRPRPIVTPRP
shrunken log2 fold change: 0.583

RRIRARPPRLPRPRPRPFRIPRP
shrunken log2 fold change: -0.169

RRIRLRPPRLPRPRPRPAYRPRP
shrunken log2 fold change: -0.0396

RRIRMRPPRLPRPRPRPVKYPRP
shrunken log2 fold change: 0.0631

RRIRVRPPRLPRPRPRPYMHPRP
shrunken log2 fold change: -0.3

RRIRIRPPRLPRPRPRPMPIPRP
shrunken log2 fold change: -0.0218

RRIRTRPPRLPRPRPRPKYGPRP
shrunken log2 fold change: -0.0738

RRIRIRPPRLPRPRPRPAQNPRP
shrunken log2 fold change: -0.0711

RRIRRRPPRLPRPRPRPQTAPRP
shrunken log2 fold change: -0.11

RRIRPRPPRLPRPRPRPIIHPRP
shrunken log2 fold change: -0.707

RRIRSRPPRLPRPRPRPQYEPRP
shrunken log2 fold change: -0.355

RRIRRRPPRLPRPRPRPQCRPRP
shrunken log2 fold change: 0.123

RRIRRRPPRLPRPRPRPWFYPRP
shrunken log2 fold change: -0.00712

RRIRHRPPRLPRPRPRPGYCPRP
shrunken log2 fold change: -0.507

RRIRCRPPRLPRPRPRPQEIPRP
shrunken log2 fold change: -0.0405

RRIRHRPPRLPRPRPRPCPNPRP
shrunken log2 fold change: -0.00414

RRIRLRPPRLPRPRPRPKWSPRP
shrunken log2 fold change: -0.171

RRIRCRPPRLPRPRPRPFLKPRP
shrunken log2 fold change: -0.639

RRIRMRPPRLPRPRPRPWSLPRP
shrunken log2 fold change: -0.385

RRIRFRPPRLPRPRPRPHFTPRP
shrunken log2 fold change: -0.489

RRIRNRPPRLPRPRPRPYMNPRP
shrunken log2 fold change: -0.207

RRIRIRPPRLPRPRPRPKHNPRP
shrunken log2 fold change: -0.349

RRIRCRPPRLPRPRPRPNDKPRP
shrunken log2 fold change: -0.46
